Source: patent publication US20200165324A1

What was measured:
JR-CSF R476A [1] = experiment: ELISA, gp120 captured from lysed virions
JR-CSF E370A = experiment: ELISA, gp120 captured from lysed virions
BG505 R476A [2] = experiment: ELISA, gp120 captured from lysed virions
JR-CSF G471A = experiment: ELISA, gp120 captured from lysed virions
JR-CSF N262A = experiment: ELISA, gp120 captured from lysed virions
BG505 N363A [3] = experiment: ELISA, gp120 captured from lysed virions
JR-CSF K207A = experiment: ELISA, gp120 captured from lysed virions
BG505 G471A [4] = experiment: ELISA, gp120 captured from lysed virions
JR-CSF S199A [5] = experiment: ELISA, gp120 captured from lysed virions
JR-CSF N276A [6] = experiment: ELISA, gp120 captured from lysed virions
BG505 G367A = experiment: ELISA, gp120 captured from lysed virions
JR-CSF N362A [7] = experiment: ELISA, gp120 captured from lysed virions
JR-CSF N283A [8] = experiment: ELISA, gp120 captured from lysed virions
BG505 L179A = experiment: ELISA, gp120 captured from lysed virions
JR-CSF T373A = experiment: ELISA, gp120 captured from lysed virions
JR-CSF D368A = experiment: ELISA, gp120 captured from lysed virions
BG505 K121A [9] = experiment: ELISA, gp120 captured from lysed virions
BG505 V371A = experiment: ELISA, gp120 captured from lysed virions
JR-CSF T372A = experiment: ELISA, gp120 captured from lysed virions
BG505 K282A [10] = experiment: ELISA, gp120 captured from lysed virions
JR-CSF S365A [11] = experiment: ELISA, gp120 captured from lysed virions
JR-CSF T198A [12] = experiment: ELISA, gp120 captured from lysed virions
BG505 N197A = experiment: ELISA, gp120 captured from lysed virions
BG505 G366A = experiment: ELISA, gp120 captured from lysed virions
JR-CSF N279A = experiment: ELISA, gp120 captured from lysed virions
[13] = molecular target: JR-CSF gp120 captured from lysed virions (HIV isolate JR-CSF) (UniProt P20871); experiment: ELISA, gp120 captured from lysed virions
JR-CSF G473A = experiment: ELISA, gp120 captured from lysed virions
JR-CSF G472A = experiment: ELISA, gp120 captured from lysed virions
BG505 N283A = experiment: ELISA, gp120 captured from lysed virions
JR-CSF G366A = experiment: ELISA, gp120 captured from lysed virions
BG505 G472A = experiment: ELISA, gp120 captured from lysed virions
BG505 N332T [14] = molecular target: BG505 N332T
JR-CSF R476A [15] = molecular target: JR-CSF R476A
BG505 R476A [16] = molecular target: BG505 R476A
BG505 T372A [17] = molecular target: BG505 T372A
BG505 N363A [18] = molecular target: BG505 N363A
BG505 G471A [19] = molecular target: BG505 G471A
JR-CSF S199A [20] = molecular target: JR-CSF S199A
JR-CSF N276A [21] = molecular target: JR-CSF N276A
BG505 T373A [22] = molecular target: BG505 T373A
JR-CSF N362A [23] = molecular target: JR-CSF N362A
JR-CSF N283A [24] = molecular target: JR-CSF N283A
BG505 K121A [25] = molecular target: BG505 K121A
[26] = molecular target: JR-CSF Env on JR-CSF pseudovirus
BG505 K282A [27] = molecular target: BG505 K282A
JR-CSF S365A [28] = molecular target: JR-CSF S365A
JR-CSF T198A [29] = molecular target: JR-CSF T198A
BG505 L369A [30] = molecular target: BG505 L369A
BG505 N279A [31] = molecular target: BG505 N279A
BG505 N332T [32] = experiment: ELISA, gp120 captured from lysed virions
BG505 T372A [33] = experiment: ELISA, gp120 captured from lysed virions
[34] = molecular target: BG505 gp120 captured from lysed virions (HIV isolate BG505); experiment: ELISA, gp120 captured from lysed virions
BG505 T373A [35] = experiment: ELISA, gp120 captured from lysed virions
BG505 S365A = experiment: ELISA, gp120 captured from lysed virions
BG505 E370A = experiment: ELISA, gp120 captured from lysed virions
BG505 L369A [36] = experiment: ELISA, gp120 captured from lysed virions
BG505 S364A = experiment: ELISA, gp120 captured from lysed virions
BG505 N279A [37] = experiment: ELISA, gp120 captured from lysed virions
JR-CSF V371A = experiment: ELISA, gp120 captured from lysed virions

With PGT121 (antibody) the EC50 (JR-CSF R476A [1]) was 0.984 µg/mL, the EC50 (JR-CSF E370A) was 0.933 µg/mL and the EC50 (BG505 R476A [2]) was 1 µg/mL. For the same substance, the EC50 (JR-CSF G471A) was 0.619 µg/mL, the EC50 (JR-CSF N262A) was 0.947 µg/mL and the EC50 (BG505 N363A [3]) was 2.3 µg/mL. It also gave an EC50 (JR-CSF K207A) of 0.437 µg/mL, an EC50 (BG505 G471A [4]) of 2.5 µg/mL and an EC50 (JR-CSF S199A [5]) of 1.91 µg/mL. It also gave an EC50 (JR-CSF N276A [6]) of 1.25 µg/mL, an EC50 (BG505 G367A) of 4 µg/mL and an EC50 (JR-CSF N362A [7]) of 0.747 µg/mL. For the same substance, the EC50 (JR-CSF N283A [8]) was 0.615 µg/mL, the EC50 (BG505 L179A) was 0.5 µg/mL and the EC50 (JR-CSF T373A) was 0.643 µg/mL. For the same substance, the EC50 (JR-CSF D368A) was 0.942 µg/mL, the EC50 (BG505 K121A [9]) was 1 µg/mL and the EC50 (BG505 V371A) was 1.4 µg/mL. For the same substance, the EC50 (JR-CSF T372A) was 0.698 µg/mL, the EC50 (BG505 K282A [10]) was 1.3 µg/mL and the EC50 (JR-CSF S365A [11]) was 0.935 µg/mL. It also gave an EC50 (JR-CSF T198A [12]) of 0.604 µg/mL, an EC50 (BG505 N197A) of 1.3 µg/mL and an EC50 (BG505 G366A) of 0.9 µg/mL. It also gave an EC50 (JR-CSF N279A) of 0.535 µg/mL, an EC50 [13] of 1.33 µg/mL and an EC50 (JR-CSF G473A) of 0.46 µg/mL. The EC50 (JR-CSF G472A) was 0.664 µg/mL, the EC50 (BG505 N283A) was 3.4 µg/mL and the EC50 (JR-CSF G366A) was 0.489 µg/mL. The EC50 (BG505 G472A) was 1.4 µg/mL, the IC50, pseudovirus neutralization (BG505 N332T [14]) was 0.019 µg/mL and the IC50, pseudovirus neutralization (JR-CSF R476A [15]) was 0.014 µg/mL. For the same substance, the IC50, pseudovirus neutralization (BG505 R476A [16]) was 0.02 µg/mL, the IC50, pseudovirus neutralization (BG505 T372A [17]) was 0.019 µg/mL and the IC50, pseudovirus neutralization (BG505 N363A [18]) was 0.026 µg/mL. The IC50, pseudovirus neutralization (BG505 G471A [19]) was 0.014 µg/mL, the IC50, pseudovirus neutralization (BG505 D474A) was 0.023 µg/mL and the IC50, pseudovirus neutralization (JR-CSF S199A [20]) was 0.03 µg/mL. For the same substance, the IC50, pseudovirus neutralization (JR-CSF N276A [21]) was 0.033 µg/mL, the IC50, pseudovirus neutralization (BG505 T373A [22]) was 0.017 µg/mL and the IC50, pseudovirus neutralization (JR-CSF N362A [23]) was 0.026 µg/mL. For the same substance, the IC50, pseudovirus neutralization (JR-CSF N283A [24]) was 0.017 µg/mL, the IC50, pseudovirus neutralization (BG505 K121A [25]) was 0.026 µg/mL and the IC50, pseudovirus neutralization [26] was 0.028 µg/mL. It also gave an IC50, pseudovirus neutralization (BG505 K282A [27]) of 0.009 µg/mL, an IC50, pseudovirus neutralization (JR-CSF S365A [28]) of 0.026 µg/mL and an IC50, pseudovirus neutralization (JR-CSF T198A [29]) of 0.046 µg/mL. It also gave an IC50, pseudovirus neutralization (BG505 L369A [30]) of 0.021 µg/mL and an IC50, pseudovirus neutralization (BG505 N279A [31]) of 0.02 µg/mL.

Work on VRC01 (antibody) yielded an EC50 (BG505 N332T [32]) of 0.2 µg/mL, an EC50 (BG505 R476A [2]) of 0.5 µg/mL and an EC50 (BG505 T372A [33]) of 0.4 µg/mL. It also gave an EC50 (BG505 N363A [3]) of 0.9 µg/mL, an EC50 [34] of 0.2 µg/mL and an EC50 (BG505 G367A) of 9.4 µg/mL. For the same substance, the EC50 (BG505 T373A [35]) was 0.5 µg/mL, the EC50 (JR-CSF N362A [7]) was 0.327 µg/mL and the EC50 (JR-CSF N283A [8]) was 0.348 µg/mL. For the same substance, the EC50 (BG505 S365A) was 1.4 µg/mL, the EC50 (BG505 L179A) was 0.6 µg/mL and the EC50 (JR-CSF T373A) was 0.456 µg/mL. For the same substance, the EC50 (BG505 E370A) was 1.1 µg/mL, the EC50 (BG505 K121A [9]) was 0.7 µg/mL and the EC50 (BG505 V371A) was 1.3 µg/mL. For the same substance, the EC50 (BG505 K282A [10]) was 0.6 µg/mL, the EC50 (BG505 N197A) was 0.4 µg/mL and the EC50 (BG505 L369A [36]) was 1.6 µg/mL. The EC50 (BG505 S364A) was 0.4 µg/mL, the EC50 (BG505 G366A) was 0.7 µg/mL and the EC50 (BG505 N279A [37]) was 25.4 µg/mL. For the same substance, the EC50 (JR-CSF V371A) was 1.62 µg/mL and the EC50 (BG505 G472A) was 0.9 µg/mL.
